US20230035798A1 (CAPELLA BIOSCIENCE, published 2023)

How the values were obtained:
[1] = target: membrane LIGHT without residues 81-84 (EL4-NC-LIGHT cells) (human, UniProt O43557 1-240); assay: cell-based or functional assay
[2] = target: T1, human LIGHT (TNFSF14), full length, membrane-bound (214E allele) (human, UniProt O43557 1-240); assay: flow cytometry, EL4-LIGHT cells
T1 construct: also called membrane LIGHT; human membrane LIGHT
T1 sequence (O43557 whole entry K214E): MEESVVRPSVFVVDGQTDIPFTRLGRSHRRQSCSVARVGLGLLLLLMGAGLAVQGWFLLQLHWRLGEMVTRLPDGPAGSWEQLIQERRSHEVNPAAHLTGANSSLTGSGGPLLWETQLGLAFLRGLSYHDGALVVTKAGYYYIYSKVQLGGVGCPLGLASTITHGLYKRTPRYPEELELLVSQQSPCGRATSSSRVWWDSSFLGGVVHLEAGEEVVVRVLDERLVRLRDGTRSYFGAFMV

membrane LIGHT without residues 81-84 (EL4-NC-LIGHT cells), sequence (O43557 other isoform, or with tags, fused parts or gaps): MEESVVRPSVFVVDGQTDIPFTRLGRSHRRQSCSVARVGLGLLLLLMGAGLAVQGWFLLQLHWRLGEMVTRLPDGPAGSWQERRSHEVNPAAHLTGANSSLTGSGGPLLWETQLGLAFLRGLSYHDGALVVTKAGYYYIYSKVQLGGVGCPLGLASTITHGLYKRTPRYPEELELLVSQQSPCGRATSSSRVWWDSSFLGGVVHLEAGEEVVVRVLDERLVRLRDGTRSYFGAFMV

IC50, inhibition of IL-8 secretion from HT-29 cells (EL4-NC-LIGHT cells) [1] [nM] | EC50 [2] [nM] | Binder
0.05 | 0.28 | 3B04_var8 (antibody, human IgG4, V domains shown, human IgG4 (S241P, L248E, Kabat); also called 3B04 VL2VH4 (var8)) VH: QVQLVQSGAEVKKPGASVKVSCKASGYTFTDYEMHWVRQAPGQGLEWMGEIDPETGDTAYAQKFQGRVTLTADKSTSTAYMELSSLRSEDTAVYYCSRETDYFFDYWGQGTLVTVSS VL: DIQMTQSPSSLSASVGDRVTITCGASENIYGALNWYQRKQGKAPKLLIYGATNLADGVPSRFSGSGSGRDYTLTISSLQPEDFATYYCQNVLTTPWTFGQGTKLEIKR
0.1 | 0.24 | 3B04_var16 (antibody, human IgG4, V domains shown, human IgG4 (S241P, L248E, Kabat); also called 3B04 VL4VH4 (var16); 3B04 variant 16) VH: QVQLVQSGAEVKKPGASVKVSCKASGYTFTDYEMHWVRQAPGQGLEWMGEIDPETGDTAYAQKFQGRVTLTADKSTSTAYMELSSLRSEDTAVYYCSRETDYFFDYWGQGTLVTVSS VL: DIQMTQSPSSLSASVGDRVTITCRASENIYGALNWYQQKPGKAPKLLIYGATNLAEGVPSRFSGSGSGRDYTLTISSLQPEDFATYYCQNVLTTPWTFGQGTKLEIKR
0.05 | 0.3 | 3B04_var14 (antibody, human IgG4, V domains shown, human IgG4 (S241P, L248E, Kabat); also called 3B04 VL4VH2 (var14)) VH: QVQLVQSGAEVKKPGASVKVSCKASGYTFTDYEMHWVRQAPGQGLEWIGEIDPETGDTAYSQKFQGRVTLTADKSTSTAYMEFSSLRSEDTAVYYCSRETDYFFDYWGQGTLVTVSS VL: DIQMTQSPSSLSASVGDRVTITCRASENIYGALNWYQQKPGKAPKLLIYGATNLAEGVPSRFSGSGSGRDYTLTISSLQPEDFATYYCQNVLTTPWTFGQGTKLEIKR
0.07 | 0.24 | 3B04_var12 (antibody, human IgG4, V domains shown, human IgG4 (S241P, L248E, Kabat); also called 3B04 VL3VH4 (var12)) VH: QVQLVQSGAEVKKPGASVKVSCKASGYTFTDYEMHWVRQAPGQGLEWMGEIDPETGDTAYAQKFQGRVTLTADKSTSTAYMELSSLRSEDTAVYYCSRETDYFFDYWGQGTLVTVSS VL: DIQMTQSPSSLSASVGDRVTITCGASENIYGALNWYQQKPGKAPKLLIYGATNLADGVPSRFSGSGSGRDYTLTISSLQPEDFATYYCQNVLTTPWTFGQGTKLEIKR
0.74 | 0.47 | 3D12_var2 (antibody, human IgG4, V domains shown, human IgG4 (S241P, L248E, Kabat); also called 3D12 VL1VH2 (var2)) VH: QVQLVQSGAEVKKPGASVKVSCKASDYTFTDSEIHWVRQAPGQGLEWIGEIDPETGGTAYNQKFQGRVTLTADKSTSTAYMELSSLRSEDTAVYYCSRETDYFFDYWGQGTLVTVSS VL: DIQMTQSPSSLSASVGDRVTITCGASENIYGALNWYQRKQGKAPQLLIYGATNLADGVSSRFSGSGSGRDYTLTISSLQPEDVATYYCQNVLSTPWTFGQGTKLEIKR
0.1 | 0.39 | 3B04_var15 (antibody, human IgG4, V domains shown, human IgG4 (S241P, L248E, Kabat); also called 3B04 VL4VH3 (var15)) VH: QVQLVQSGAEVKKPGASVKVSCKASGYTFTDYEMHWVRQAPGQGLEWMGEIDPETGDTAYAQKFQGRVTLTADKSTSTAYMEFSSLRSEDTAVYYCSRETDYFFDYWGQGTLVTVSS VL: DIQMTQSPSSLSASVGDRVTITCRASENIYGALNWYQQKPGKAPKLLIYGATNLAEGVPSRFSGSGSGRDYTLTISSLQPEDFATYYCQNVLTTPWTFGQGTKLEIKR
0.04 | 0.32 | 3B04_var3 (antibody, human IgG4, V domains shown, human IgG4 (S241P, L248E, Kabat); also called 3B04 VL1VH3 (var3)) VH: QVQLVQSGAEVKKPGASVKVSCKASGYTFTDYEMHWVRQAPGQGLEWMGEIDPETGDTAYAQKFQGRVTLTADKSTSTAYMEFSSLRSEDTAVYYCSRETDYFFDYWGQGTLVTVSS VL: DIQMTQSPSSLSASVGDRVTITCGASENIYGALNWYQRKQGKAPQLLIYGATNLADGVSSRFSGSGSGRDYTLTISSLQPEDFATYYCQNVLTTPWTFGQGTKLEIKR
0.04 | 0.32 | 3B04_var13 (antibody, human IgG4, V domains shown, human IgG4 (S241P, L248E, Kabat); also called 3B04 VL4VH1 (var13)) VH: QVQLVQSGAEVKKPGASVKVSCKASGYTFTDYEMHWVRQAPGQGLEWIGEIDPETGDTAYSQKFKGRATLTADKSTSTAYMEFSSLRSEDTAVYYCSRETDYFFDYWGQGTLVTVSS VL: DIQMTQSPSSLSASVGDRVTITCRASENIYGALNWYQQKPGKAPKLLIYGATNLAEGVPSRFSGSGSGRDYTLTISSLQPEDFATYYCQNVLTTPWTFGQGTKLEIKR
0.08 | 0.27 | 3B04_var6 (antibody, human IgG4, V domains shown, human IgG4 (S241P, L248E, Kabat); also called 3B04 VL2VH2 (var6)) VH: QVQLVQSGAEVKKPGASVKVSCKASGYTFTDYEMHWVRQAPGQGLEWIGEIDPETGDTAYSQKFQGRVTLTADKSTSTAYMEFSSLRSEDTAVYYCSRETDYFFDYWGQGTLVTVSS VL: DIQMTQSPSSLSASVGDRVTITCGASENIYGALNWYQRKQGKAPKLLIYGATNLADGVPSRFSGSGSGRDYTLTISSLQPEDFATYYCQNVLTTPWTFGQGTKLEIKR
0.04 | 0.27 | 3B04_var5 (antibody, human IgG4, V domains shown, human IgG4 (S241P, L248E, Kabat); also called 3B04 VL2VH1 (var5)) VH: QVQLVQSGAEVKKPGASVKVSCKASGYTFTDYEMHWVRQAPGQGLEWIGEIDPETGDTAYSQKFKGRATLTADKSTSTAYMEFSSLRSEDTAVYYCSRETDYFFDYWGQGTLVTVSS VL: DIQMTQSPSSLSASVGDRVTITCGASENIYGALNWYQRKQGKAPKLLIYGATNLADGVPSRFSGSGSGRDYTLTISSLQPEDFATYYCQNVLTTPWTFGQGTKLEIKR
0.33 | 0.22 | 3D12_var1 (antibody, human IgG4, V domains shown, human IgG4 (S241P, L248E, Kabat); also called 3D12 VL1VH1 (var1)) VH: QVQLVQSGAEVKKPGASVKVSCKASDYTFTDSEIHWVRQAPGQGLEWIGEIDPETGGTAYNQKFKGRATLTADKSTSTAYMELSSLRSEDTAVYYCSRETDYFFDYWGQGTLVTVSS VL: DIQMTQSPSSLSASVGDRVTITCGASENIYGALNWYQRKQGKAPQLLIYGATNLADGVSSRFSGSGSGRDYTLTISSLQPEDVATYYCQNVLSTPWTFGQGTKLEIKR
0.05 | 0.24 | 3B04_var1 (antibody, human IgG4, V domains shown, human IgG4 (S241P, L248E, Kabat); also called 3B04 VL1VH1 (var1)) VH: QVQLVQSGAEVKKPGASVKVSCKASGYTFTDYEMHWVRQAPGQGLEWIGEIDPETGDTAYSQKFKGRATLTADKSTSTAYMEFSSLRSEDTAVYYCSRETDYFFDYWGQGTLVTVSS VL: DIQMTQSPSSLSASVGDRVTITCGASENIYGALNWYQRKQGKAPQLLIYGATNLADGVSSRFSGSGSGRDYTLTISSLQPEDFATYYCQNVLTTPWTFGQGTKLEIKR
0.05 | 0.23 | 3B04_var7 (antibody, human IgG4, V domains shown, human IgG4 (S241P, L248E, Kabat); also called 3B04 VL2VH3 (var7)) VH: QVQLVQSGAEVKKPGASVKVSCKASGYTFTDYEMHWVRQAPGQGLEWMGEIDPETGDTAYAQKFQGRVTLTADKSTSTAYMEFSSLRSEDTAVYYCSRETDYFFDYWGQGTLVTVSS VL: DIQMTQSPSSLSASVGDRVTITCGASENIYGALNWYQRKQGKAPKLLIYGATNLADGVPSRFSGSGSGRDYTLTISSLQPEDFATYYCQNVLTTPWTFGQGTKLEIKR
0.09 | 0.26 | 3B04_var9 (antibody, human IgG4, V domains shown, human IgG4 (S241P, L248E, Kabat); also called 3B04 VL3VH1 (var9)) VH: QVQLVQSGAEVKKPGASVKVSCKASGYTFTDYEMHWVRQAPGQGLEWIGEIDPETGDTAYSQKFKGRATLTADKSTSTAYMEFSSLRSEDTAVYYCSRETDYFFDYWGQGTLVTVSS VL: DIQMTQSPSSLSASVGDRVTITCGASENIYGALNWYQQKPGKAPKLLIYGATNLADGVPSRFSGSGSGRDYTLTISSLQPEDFATYYCQNVLTTPWTFGQGTKLEIKR
0.04 | 0.26 | 3B04_var4 (antibody, human IgG4, V domains shown, human IgG4 (S241P, L248E, Kabat); also called 3B04 VL1VH4 (var4)) VH: QVQLVQSGAEVKKPGASVKVSCKASGYTFTDYEMHWVRQAPGQGLEWMGEIDPETGDTAYAQKFQGRVTLTADKSTSTAYMELSSLRSEDTAVYYCSRETDYFFDYWGQGTLVTVSS VL: DIQMTQSPSSLSASVGDRVTITCGASENIYGALNWYQRKQGKAPQLLIYGATNLADGVSSRFSGSGSGRDYTLTISSLQPEDFATYYCQNVLTTPWTFGQGTKLEIKR
0.04 | 0.49 | 3B04_var10 (antibody, human IgG4, V domains shown, human IgG4 (S241P, L248E, Kabat); also called 3B04 VL3VH2 (var10)) VH: QVQLVQSGAEVKKPGASVKVSCKASGYTFTDYEMHWVRQAPGQGLEWIGEIDPETGDTAYSQKFQGRVTLTADKSTSTAYMEFSSLRSEDTAVYYCSRETDYFFDYWGQGTLVTVSS VL: DIQMTQSPSSLSASVGDRVTITCGASENIYGALNWYQQKPGKAPKLLIYGATNLADGVPSRFSGSGSGRDYTLTISSLQPEDFATYYCQNVLTTPWTFGQGTKLEIKR
0.06 | 0.38 | 3B04_var2 (antibody, human IgG4, V domains shown, human IgG4 (S241P, L248E, Kabat); also called 3B04 VL1VH2 (var2)) VH: QVQLVQSGAEVKKPGASVKVSCKASGYTFTDYEMHWVRQAPGQGLEWIGEIDPETGDTAYSQKFQGRVTLTADKSTSTAYMEFSSLRSEDTAVYYCSRETDYFFDYWGQGTLVTVSS VL: DIQMTQSPSSLSASVGDRVTITCGASENIYGALNWYQRKQGKAPQLLIYGATNLADGVSSRFSGSGSGRDYTLTISSLQPEDFATYYCQNVLTTPWTFGQGTKLEIKR
0.06 | 0.37 | 3B04_var11 (antibody, human IgG4, V domains shown, human IgG4 (S241P, L248E, Kabat); also called 3B04 VL3VH3 (var11)) VH: QVQLVQSGAEVKKPGASVKVSCKASGYTFTDYEMHWVRQAPGQGLEWMGEIDPETGDTAYAQKFQGRVTLTADKSTSTAYMEFSSLRSEDTAVYYCSRETDYFFDYWGQGTLVTVSS VL: DIQMTQSPSSLSASVGDRVTITCGASENIYGALNWYQQKPGKAPKLLIYGATNLADGVPSRFSGSGSGRDYTLTISSLQPEDFATYYCQNVLTTPWTFGQGTKLEIKR
